Laboratory results reported in patent US7776563B2, “Methods for identifying agents for treating cardiovascular disease using inhibition of myeloperoxidase binding” (The Cleveland Clinic Foundation, priority 2004, dated 2010).
Ends that are not written are not given here.

Each substance was assayed against binding of human apoA-1 to isolated human MPO (Homo sapiens, UniProt P05164) (assay: Binding of human apoA-1 to plate-bound MPO in the presence of peptide). Details: isolated human MPO bound to wells of a 96 well plate; apoA-1 binding determined in presence of peptide; FIG. 9.
Sequence of binding of human apoA-1 to isolated human MPO (P05164 279-745 limits assumed): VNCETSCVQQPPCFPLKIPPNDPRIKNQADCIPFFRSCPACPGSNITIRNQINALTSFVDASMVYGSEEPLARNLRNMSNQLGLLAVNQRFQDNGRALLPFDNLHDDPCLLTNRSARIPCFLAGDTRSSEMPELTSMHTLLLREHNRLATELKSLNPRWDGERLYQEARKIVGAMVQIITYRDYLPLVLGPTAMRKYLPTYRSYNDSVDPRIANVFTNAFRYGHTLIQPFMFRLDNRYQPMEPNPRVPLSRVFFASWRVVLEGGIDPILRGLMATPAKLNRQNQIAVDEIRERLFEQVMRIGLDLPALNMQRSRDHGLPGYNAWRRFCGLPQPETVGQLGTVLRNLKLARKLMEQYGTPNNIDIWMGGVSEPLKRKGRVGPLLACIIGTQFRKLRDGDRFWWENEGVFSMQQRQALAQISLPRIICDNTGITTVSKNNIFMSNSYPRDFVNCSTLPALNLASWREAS
Sequence of binding of human apoA-1 to isolated human MPO (P05164 165-278 limits assumed): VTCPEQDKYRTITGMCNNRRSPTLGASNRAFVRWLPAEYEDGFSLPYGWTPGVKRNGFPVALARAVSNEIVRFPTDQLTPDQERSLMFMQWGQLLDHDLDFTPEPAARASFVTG
Description: Isolated human MPO was bound to the wells in a 96 well plate and then the binding of human apoA-1 to the MPO was determined in the presence of a peptide comprising the sequence N-Ac-(L) AEYHAKATEHLSTL, SEQ ID NO: 2 (also known as the L-ApoA-MPO peptide), a sequence comprising SEQ ID NO: 2 and D amino acids, also known as the D-apoA-MPO peptide, and a peptide comprising the sequence, N-Ac (L) KHETHSLAYAAET, SEQ ID NO: 4.
“D-apoA-MPO peptide: a sequence comprising SEQ ID NO: 2 (AEYHAKATEHLSTL) and D amino acids (also: D amino acids (positions not given here); listed as Homo sapiens)” was tested, and the “effect on binding of apo A-1 to MPO” value was “inhibited binding of apo A-1 to MPO”. In the case of “N-Ac-(L) AEYHAKATEHLSTL (Ac-AEYHAKATEHLSTL; listed as Homo sapiens) [L-ApoA-MPO peptide]”, the “effect on binding of apo A-1 to MPO” value is reported as “inhibited binding of apo A-1 to MPO”. For “N-Ac (L) KHETHSLAYAAET (Ac-KHETHSLAYAAET; listed as Homo sapiens) [SEQ ID NO: 4, reference compound]”, the “effect on binding of apo A-1 to MPO” value was “had no effect on MPO-apoA-1 binding”.
